Assay results from patent US20150351390A1, “COMPOSITIONS AND METHODS FOR AUXIN-ANALOG CONJUGATION” (PIONEER HI-BRED INTERNATIONAL, INC., priority 2012, published 2015).

Columns and labels:
[1] = LC-MS assay of GH3 conjugation of IAA with Asp or Glu; type: biochemical; conditions: for kcat (hrs−1) IAA-Asp: conjugation of IAA with Asp by recombinant GH3 protein, IAA-Asp product by LC-MS; for kcat (hrs−1) IAA-Glu: conjugation of IAA with Glu by recombinant GH3 protein, IAA-Glu product by LC-MS
Procedure, shortened: (§1)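 N-terminal His-tagged GH3 homologs, expressed in E. coli C41(DE3) and Ni-NTA purified, at 44 to 164 μg/mL incubated 3 h at 30 °C in 20 mM Tris-HCl pH 8.0, 5 mM MgCl2, 1 mM DTT, 5 mM ATP, 5 mM auxin (IAA, 2,4-D or dicamba) and 5 mM Asp or Glu. Conjugates quantified by LC-MS against standards after MeOH precipitation; kinetics from Michaelis-Menten fits of initial velocities.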

[2] = LC-MS assay of GH3 conjugation of 2,4-D with Asp or Glu; type: biochemical; conditions: 5 mM 2,4-D substrate; for kcat (hrs−1) 2,4-D-Asp: conjugation of 2,4-D with Asp by recombinant GH3 protein, 2,4-D-Asp product by LC-MS; for kcat (hrs−1) 2,4-D-Glu: conjugation of 2,4-D with Glu by recombinant GH3 protein, 2,4-D-Glu product by LC-MS
Procedure, shortened: as §1

B1: VvGH3-6: GH3 protein, accession XP_002268278 (protein, listed as Vitis vinifera)
chain: MLLSCDPHDNEAGLMLLEDLTTNANQVQLEVLEEILTQNANTEYLRGYLDGHSDKGLFKKKVPIVNYEDIKPHIERIANGEPSRIISAQPITELLTSSGTSGGQPKLMPSTAEDLDRKTFFYNLLIPVMNKYVDGLDQGKGMYLLFIKPEISTPSGLMARPVLTSYYKSSNFRNRPFNPFNVYTSPDETILCLDSKQSMYCQLLCGLVQRDEVLRVGAVFASAFLRAIKFLEDHWRELCSNIRTGCVSDWITDPSCRNAVSSFLSKPQPDLADFIEFECNGESWEGIIKRLWPRTKYIEVIVTGSMAQYIPTLEFYSGGLPLVSTMYASSECYYGINLKPLSKPSDVSYTLLPNMAYFEFLPVQKNNGEVTQQVQCNGGCIKKEGERVEIEVVGLVDVKVGHYYELVVTTFTGLYRYRTGDILMVTGFYNNAPQFRFVQRRNVVLSIDTDKTNEEDLLKAVTQAKLLLEPYGFLLTEYTSYADTSSIPGHYVLFWELKTRGNNDLSEPDHTIMEQCCSTVEESLDSVYRRCRRRDNSIGPLEIRIVKPGTFDALMDFCVSQGSSVNQYKTPRCIKSKEAIKILDSRVVGKVFSKKVPFWEPFKMETK
**Q.** For B1, which “kcat (hrs−1) IAA-Asp” value [1] is on record?
**A.** 111.443 h⁻¹

**Q.** And the “kcat (hrs−1) IAA-Glu” value [1]?
**A.** 505.272 h⁻¹

**Q.** What about the “kcat (hrs−1) 2,4-D-Asp” value [2] of the same molecule?
**A.** 0.385 h⁻¹

**Q.** And the “kcat (hrs−1) 2,4-D-Glu” value [2]?
**A.** 1.204 h⁻¹

B2: VvGH3-4: GH3 protein, accession XP_002263353 (protein, listed as Vitis vinifera)
chain: MEGKRLEYRGEEALKELEKFTAKADEVQENILKEIIARNCETEYLKKYMGGSKDVLEFKQSVPVITYKDIHPYIQRIANGEDSSLISGHPITEMLCSSGTSGGEPKMMPSIAEDLNRRTFLYNLIMPIMNQYIPGLDEGKAMFLYFVKAEMSTPCGLPARAVLTSYYKSKNFRCRVRDAFNDFTSPDQAILCTDSNQSMYCQLLAGLVHRHQVLRLGAVFASALLRAISFLERHWVHLCNDIRTGHLDSSITDPECRSSMSTILSSPNPHLADEIEEICSHPSWKGMLSQLWPRAKYIEAVITGSMAQYIPSLEYYSGGKLPLVCTMYASSECYFGVNMKPLCDPADVAFTLLPNMCYFEFIPLGENGTLLMDMDEEKGVPKEKLVDLVHVRLGCYYELVVTTFAGLNRYRIGDVLQVTGFHNRAPQFRFICRRNVVLSIDNDKTNEEDLHRSITMAKKLLEPYNALLVEYTSYADTSSLPGHYVLYWEITHCISTDSPSTPLDSKVLEECCIAVEEELDYIYRRCRTHDKSVGPLEIRLVQPGTFEDLMDLFISQGGSINQYKTPRCIKSSNALKLLNSNVEASFFSPRDPRWIP
**Q.** What does the source list for B2?
**A.** kcat (hrs−1) IAA-Asp [1]: 3.873 h⁻¹; kcat (hrs−1) IAA-Glu [1]: 16.309 h⁻¹; kcat (hrs−1) 2,4-D-Asp [2]: 0.000 h⁻¹; kcat (hrs−1) 2,4-D-Glu [2]: 0.018 h⁻¹

B3: AIGH3-12 (protein, listed as Arabidopsis lyrata)
chain: MKPISDINESFEKQLKYLTSDVKQIQDNLLEEIITPNTKTEYLQRFLIGRFDKDLFKKNVPIVTYEDIKPYLDRVVNGESSDVISARPITGFLLSSGTSGGAQKMMPWNNKYLDNLTFIYDLRMQVITKHVKGVEEGKGMMFLFTKQESMTPSGLPARVATSSYFKSDYFKHRPSNWYYSYTSPDEVILCPNNTQSLYCHLLCGLVQRDEVVRTGSIFASVMVRAIEVLKNSWEELCSNIRSGHLSNWVTDLGCQSSVSLVLGGPRPELADTIEEICNQKSWKGIVKRLWPNTKYIETVVTGSMGQYVPMLNYYCNDLPLVSTTYGSSETTFGINLDPLCKPEDVSYTFMPNMSYFEFIPMDGDNNDVVDLEDVKLGCTYEPVVTNFAGLYRMRVGDIVLVTGFYNNAPQFKFVRRENVVLSIDSDKTNEEDLFKAVSQAKLVLESSGLDLKDFTSYADTSTFPGHYVVYLEVDTKEGEEKKTAQFELDEEALSMCCLVMEESLDNVYKRCRFKDGSIGPLEIRVVRQGTFISLMDFFISQGASTGQYKTPRCIKSGKALQVLETCVVAKFFSS
**Q.** With B3 as the molecule, how does the “kcat (hrs−1) IAA-Asp” value [1] read?
**A.** 0.000 h⁻¹

**Q.** And the “kcat (hrs−1) IAA-Glu” value [1]?
**A.** 12.925 h⁻¹

**Q.** And the “kcat (hrs−1) 2,4-D-Asp” value [2]?
**A.** 0.006 h⁻¹

**Q.** And the “kcat (hrs−1) 2,4-D-Glu” value [2]?
**A.** 0.057 h⁻¹

B4: SbEES08587: GH3 protein, accession EES08587 (protein)
chain: MSTSPAVLDHDHGHHRLLSSVSPPTTTTDSPATAMPPRAPSSLPPTIPACDPHDGPASLQLIEDLTTHAGAIQQRVLREILAMNAGTDYLRGFLGAGAEGRDADELAATFKDRVPVVEYEDVKPYIERIANGAPSSLISSKTITELLTSSGTSGGQPKLMPSTEEELDRKTFLYNLLVPVMNKYVEGLDKGRCMYLLFVKPEITTASGLVARPVLTSYYKSRHFRERPDSPYTRYTSPNEAILCPDSAQSMYAQLLCGLARRGEVLRVGAVFASAFLRAVKFLEAHWRALCDDIRAGRVDASRVTDAACRDAVARVVARPDPALADAIAAECEGSSSSSWRGIVRRLWPRTKYIDVIVTGSMAQYIPLLEFYGGGLPLVSTMYASSECYFGINLRPLDPPEDVAYTLLPNMCYYEFIKVEKDGEEAREDGKVVDLVDVEAGGYYELLVTTFTGLYRYRVGDILQVSGFHNAAPQFRFVHRRNVVLSVDTDKTSEDDLLRAVTAAKRLLAPLGGATILSEYTAYADTASIPGHYVLFWELTPTPPMPGDGDTAARVMAACCAEVEAGLDAVYQRCRSRDRSVGPLEIRVVSTGAFDALMDLCVSHGSSVNQYKTPRCIKHPDAIAVLEARVVGRFFSDTVPHWEPFNVVDTAAAGAAATTTPSLNEGAT
modifications: Sorghum bicolor
**Q.** With B4 as the molecule, how does the “kcat (hrs−1) IAA-Asp” value [1] read?
**A.** 10.251 h⁻¹

**Q.** What about the “kcat (hrs−1) IAA-Glu” value [1] of the same molecule?
**A.** 389.161 h⁻¹

**Q.** What about the “kcat (hrs−1) 2,4-D-Asp” value [2] of the same molecule?
**A.** 0.044 h⁻¹

**Q.** And the “kcat (hrs−1) 2,4-D-Glu” value [2]?
**A.** 0.554 h⁻¹

B5: RcGH3-17: GH3 protein, accession XP_002531876 (protein, listed as Ricinus communis)
chain: MDGKKLEYKGEAALEEIEKLTEKADEVQESILREILIQNGQTEYLSKYIKGSKDVKEFKYCVPVTTYKDMYPYIQRIANGEDSSLITGRPITEMLCSSGTSAGEPKLMPSINEDLDRRTFIYNLVMPIMNQYISGLDEGKAMYLYFVKEEMSTPCGLPARTVLTSYYKSKHFKCRARDSFNDFTSPDQAILCKDSDQSMYCQLLSGLVYRHQVLRIGAVFASALLRAISFLERNWVHLCNDIRNGELDPMITDPECRSCMSMILSSPNPSLADEIEEICSRPSWKGILCLLWPRTKYIEAVVTGSMAQYVPSLKYYSERKLPLVCTMYASSECYFGVNLKPLSDPAEVSFTLMPNMCYFEFIPLGENGTLLMDVDEEEKVPIHKLVDLVHVRRGCYYELVVTTFAGLYRYRIGDVLQVTGFHNQAPQFRFICRRNVVLSIDNDKTNEEDLHKSISTAKKLLEPYNAILVEYTSYAETLVVPGHYVLYWEILHHSSVVNHNQTPLDAEVFQECCIAVEEELDYIYRRCRTHDKSIGPLEIRVVEPGTFEALMDLFIGQGGSINQYKTPRCIKSNAALMLLNSHVKASFFSARDPVWIP
**Q.** With B5 as the molecule, how does the “kcat (hrs−1) IAA-Asp” value [1] read?
**A.** 4.366 h⁻¹

**Q.** And the “kcat (hrs−1) IAA-Glu” value [1]?
**A.** 10.433 h⁻¹

**Q.** What about the “kcat (hrs−1) 2,4-D-Asp” value [2] of the same molecule?
**A.** 0.000 h⁻¹

**Q.** And the “kcat (hrs−1) 2,4-D-Glu” value [2]?
**A.** 0.027 h⁻¹

B6: OsGH3-6: GH3 protein, accession Q60EY1 (protein, listed as Oryza sativa)
chain: MAATAWGIRSSGIRGASPVMSACVSPAEVILGADHQQQMYCHLLCGLRRWDAVDCIRAPYAAALARALRLLQSKWRQLCDDLECGTVCADVVTDAAMRGAVQDGVLAGPCPELAGRVRRICERDDWRGVLRQLWPDARYISCVTTGTMEQYFPAIKHFAGEALPVLGTDYLASECAIGINLERTSPPEETTYVLLPRAAYFEFIPFDMDAAGRGAAAAEPVDIAGVEAGKTYELVATTFRGLYRYKVGDVVKIAGFHHSSPRLQFVTRAPPPQEHGEVLTERDVMAAMDTFQLMLKDGGEVIEFAAFIIDGDGGQRRRRCATIAVEVSNGSKLLDHERSAAFLRRCTAPLEGCLGGAYRLSRATGDVAPLEVAVVRPGTFDRLAEAAIRGGAPANQYKPPRSSGTGTSSMCCNPPWCAAAAQSLNQLLTSICLIVSLNQRQFLDRESNSGTDKVFISDSILNFQHWGGFSLRFDLQEESLTLYKDHPS
**Q.** For B6, which “kcat (hrs−1) IAA-Asp” value [1] is on record?
**A.** 0.000 h⁻¹

**Q.** What about the “kcat (hrs−1) IAA-Glu” value [1] of the same molecule?
**A.** 0.000 h⁻¹

**Q.** What about the “kcat (hrs−1) 2,4-D-Asp” value [2] of the same molecule?
**A.** 0.000 h⁻¹

**Q.** And the “kcat (hrs−1) 2,4-D-Glu” value [2]?
**A.** 0.000 h⁻¹
